{"source": "patent US20200362049A1", "molecular_target": "Recombinant, Histidine-tagged extracellular domain of human CD38 (human) (UniProt P28907)", "test": "BLI (Forte Bio), 1:1 fit", "data": [{"substance": "IB4, reference monoclonal agonistic mouse anti-human CD38 antibody", "values": [{"measurement": "Kd", "value": 9, "unit": "nM"}]}]}
